Assay: yeast display, Sf9 membrane polyspecificity reagent, FACS + sequencing; frameworks hold sequencing errors
Outline: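 Nanobodies from a synthetic yeast display library (Saccharomyces cerevisiae BJ5465), induced 36–48 hours with galactose, were stained 1 hour at 4 °C with 10% biotinylated, detergent-solubilized Sf9 membrane reagent, enriched on streptavidin microbeads, then FACS-sorted. Anti-HA (expression) and streptavidin (reagent binding) fluorescence set low and high (top ~1%) gates. Polyreactivity labels come from the gate of origin. Genes were colony-PCR amplified, MiSeq 2 × 250 sequenced and filtered by CDR length.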

Row | Sequence | polyreactivity (PSR sort gate)
1 | QVQLVESGGGLVQAGGSLRLSCAASGSIFGNTMGWYRQAPGKEWEFVAAISSTGGNTYYADSVKGRFTISRDNAKITVYLQMNSLKPEDTAVYYCNRRYRYRFGYWGQGTQVTVSS | high polyreactivity
2 | QVQLVESGGGLVQAGGSLRLSCAASGSIFGPNAMGWYRQAPGKERELVAAISKSGSSTYYADSVKGRFTISRDNAKNTVYLQMNSLKREDTAVYYCAAKVSYSGVFSYYYWGQGTQVTVSS | high polyreactivity
3 | QVQLVESGGGLVQAGGSLRLSCAASGSIFGPYAMGWYRQAPGKERELVAAISKGGGSTYYADSVKGRFTISRDNAKNTVYLQMNSLKPDDTAVYYCAADQDKPYDHWGQGTQVTVSS | low polyreactivity
4 | QVQLVESGGGLVQAGGSLRLSCAASGSIFGPYAMGWYRQAPGKERELVAANTWTGGRTYYSDSVKGRFTISRDNAKNTVYLQMNSLKPEDTAVYYCAVRHRYTRAYWGRDYWGQGTQVTVSS | low polyreactivity
5 | QVQLVESGGGLVQAGGSLRLSCAASGSIFGPYAMGWYRQAPGKERELVADIRTSGGGTYYADSVKGRFTISRDNAKNTVYLQMNSLKPEDTAVYYCNADPKWEMGSWGQGTQVTVSS | low polyreactivity
6 | QVQLVESGGGLVQAGGSLRLSCAASGSIFGPYAMGWYRQAPGKERELVASITNSGSTYYADSVKGRFTISRDNAKNTVYLQMNSLKPEDTAVYYCAVDERTWINDPEEYDYWGQGTQVTVSS | low polyreactivity
7 | QVQLVESGGGLVQAGGSLRLSCAASGSIFGPYAMGWYRQAPGKERELVATITSGGRTYYADSVKGRFTISRDNAKNTVYFQLNSLKPEDTAVYYCAAAGKGRYHVRSTMDYWGQGTQVTVSS | high polyreactivity
8 | QVQLVESGGGLVQAGGSLRLSCAASGSIFGPYMGWYRQAPGKERELVASVVSTYYADSVKGRFTISRDNAKNTVYLQMNSLKPEDTAVYYCNTQDTKNKSSVFVPSDYWGQGTQVTVSS | low polyreactivity
9 | QVQLVESGGGLVQAGGSLRLSCAASGSIFGQNAMGWYRQAPGKEREMVDAITSGAGITYYADSVKGRFTISRDNAKNTVYLQMNSLKPEDTAVYYCNAVPSWSPSALFDYWGQGTQVTVAS | low polyreactivity
10 | QVQLVESGGGLVQAGGSLRLSCAASGSIFGQYAMGWYRQAPGKERELVAAITWDGTSTYYADSVKGRFTISRDNAKNTVYLQMNSLKPEDTAVYYCAADFYPYSWEEVDYWGQGTQVTVSS | low polyreactivity
11 | QVQLVESGGGLVQAGGSLRLSCAASGSIFGQYTMGWYRQAPGKERELVAVISTRGGSTYYADSVKGRFTISRDNAKNTVYLQMNSLKPEDTAVYYCAASAFRGREMDYWGQGTQVTVSS | low polyreactivity
12 | QVQLVESGGGLVQAGGSLRLSCAASGSIFGRNAMGGYRQAPGSERELVARISSRGGSTYYADSVKGRFTISRDNAKNTVDLQMNSLKPEDTAVYYCNRDRTSQTNDYWGQGTQVTVSS | high polyreactivity
13 | QVQLVESGGGLVQAGGSLRLSCAASGSIFGRNAMGWYIQAPGKERELVAAINSGGSTNYADSVKGRFTISRDNAKNTVYLQMNSLKPEDTAVYFCAARTYSSGRYYGYVAFYYWGQGTQVTVSS | high polyreactivity
14 | QVQLVESGGGLVQAGGSLRLSCAASGSIFGRNAMGWYRHAPGKERELVARISSRGGSTYYADSVKGRFTISRDNAKKTVYLQMNSLKPEDTAVYYCNRDRTWQTNDYWGQGTQVTVSS | high polyreactivity
15 | QVQLVESGGGLVQAGGSLRLSCAASGSIFGRNAMGWYRQAPGKERELVAAINYSGTSTYYADSVKGRFTISRDNAKNTVYLQMNSLKPEDTAVYYCAKARHKSPTYTHDSWGQGTQVTVSS | high polyreactivity
16 | QVQLVESGGGLVQAGGSLRLSCAASGSIFGRNAMGWYRQAPGKERELVAAITGSTYYADSVKGRFTISRDNAKNTVYLQMNSLKPEDTAVYYCNADYDVGWTYDTEYNYWGQGTQVTVSS | low polyreactivity
17 | QVQLVESGGGLVQAGGSLRLSCAASGSIFGRNAMGWYRQAPGKERELVAVITSTGGSTYYADSVKGRFTISRDNAKNTVYLQMNSLKPEDTAVYYCAARTRYRYGYWGQGTQVTVSS | high polyreactivity
18 | QVQLVESGGGLVQAGGSLRLSCAASGSIFGRNDMGWYRQAPRKERELLARITRGGSTNYADSVKGRVTISRDNAKYTVYLQMNSLKPEDTAVYYCAAGARQYRGVPDRYGYWGQGTQVTVSS | low polyreactivity
19 | QVQLVESGGGLVQAGGSLRLSCAASGSIFGRYAMGWYRQAPGKEMELVAAISTGDSTYYADSVKGRFTISRDNAKNTVYLQMNSLKPEDTAVYYCNRRGRRGYDYWGQGTQVTVSS | high polyreactivity
20 | QVQLVESGGGLVQAGGSLRLSCAASGSIFGRYAMGWYRQAPGKERELVAAISSSGGRTYYADSVNGRFTISRDNAKNTVYLQMNSLKPEDTAVYYCNAGTPYRGDYWGQGTQVTVSS | high polyreactivity
21 | QVQLVESGGGLVQAGGSLRLSCAASGSIFGRYAMGWYRQAPGKERELVAAITFTGGSTYYADSVKGRFTISRDNAKNTVYLQMNSLKPEDTAVYYCAARSLFYRGYGYWGQGTQVTVSS | high polyreactivity
22 | QVQLVESGGGLVQAGGSLRLSCAASGSIFGRYAMGWYRQAPGKERELVAAITRSGVSTYYADSVKGRFTISRDNAKNTVYLQMNSLKPEDTAVYYCNAYYPIRSSPNGYYYWGQGTQVTVSS | high polyreactivity

Row | Sequence | polyreactivity (PSR sort gate)
23 | QVQLVESGGGLVQAGGSLRLSCAASGSIFGSNAMGWYRQAPGKERELVAAITNTGRTNYADSVKGRFTISRDNAKNTVYLQMNSLKPEDTAVYYCNTDGYEFTHFAAGSGWRFDYWGLGTQVTVSS | low polyreactivity
24 | QVQLVESGGGLVQAGGSLRLSCAASGSIFGSNMGWYRQAPGKERELVAAISSRGGRTYYADSVKGRFTISRVNAKNTVYLQMNSQKPEDTAVYYCATRTFRGGRGYEYWGQGTQVTVSS | high polyreactivity
25 | QVQLVESGGGLVQAGGSLRLSCAASGSIFGSYAMGWYRPAPGKERELVAGITYRGSSTYYADSVKGRFTISRDNAKNTVYLQMNSLKPEDTAVYYCAADSVFDEYDYWGQGTQVTVSS | low polyreactivity
26 | QVQLVESGGGLVQAGGSLRLSCAASGSIFGSYAMGWYRQAPGKERELVAAITYSGGSTYYADSVKGRFTISRDNAKNTVYLHMNSLKPEDTAVYYCAADYSFYWAYFDYWGQGTQVTVSS | high polyreactivity
27 | QVQLVESGGGLVQAGGSLRLSCAASGSIFGTNAMGWYRPAPGKERELVAAINWSGGTTYYADSVKGRFTISRDIAKNTVYLQMNSLKPEDTAVFYCNVGYPSIYDYWGQGTQVTVSS | low polyreactivity
28 | QVQLVESGGGLVQAGGSLRLSCAASGSIFGTNAMGWYRQAPGKERELVAAITGRGGSTYYADSVKGRFTISRDNAKNTVYLQMNSLKPEDTAVYYCAVKISTYTYGYWGQGTQVTVSS | high polyreactivity
29 | QVQLVESGGGLVQAGGSLRLSCAASGSIFGTNAMGWYRQAPGKERELVATITSAGSTYYADSVKGRFTISRYNAKNTVYLQMNSLKPEDTAVYYCARQATGYVYREYEYWGQGTQVTVSS | low polyreactivity
30 | QVQLVESGGGLVQAGGSLRLSCAASGSIFGTNTMGWYRQAPGKERELVAAIRLSDSSTYYADSVKGRFTISRDNAKNTVYLQMNSLKPEDTAVYYCAVDYRAYHYYRYDYWGQGTQVTVSS | low polyreactivity
31 | QVQLVESGGGLVQAGGSLRLSCAASGSIFGTYAMGWYIQAPGKEREFVAAISWSDGSTYYADSVKGRFTISRDNAKNTVYLQMNSLKPEDTAVYYCAAGPSQYTEFDYWGQGTQVTVSS | low polyreactivity
32 | QVQLVESGGGLVQAGGSLRLSCAASGSIFGVNAMGWYRQAPGKERELVASISLSDDRTYYADSVKGRFTISRDNAKNTVYLQMNSLKPEDTAVYYCARRILWYWDVYPSLAEYDYWGQGTQVTVSS | low polyreactivity
33 | QVQLVESGGGLVQAGGSLRLSCAASGSIFGVYAMGWYRQAPGKERELVAAIDSGGDTYYADSVKGRFTISRDNAKNTVYLQMNSLKPEDTAVYYCNAPYNRATYNYWGQGTQVTVSS | high polyreactivity
34 | QVQLVESGGGLVQAGGSLRLSCAASGSIFGVYAMGWYRQAPGKERGLVARISGSSGSTRYADSVKGRFTISRDNAKNTVYLQMNSLKPEDTAVYYCAARAIFRQGDRIYDSWGQGTQVTVSS | high polyreactivity
35 | QVQLVESGGGLVQAGGSLRLSCAASGSIFGVYDMGWYRQAPGKEREVVAVINSNGGSTYYADSVKGRFTISRDNAKNTVYLQMNSLKPEDTAVYYCAADYQSYVYIGYGYWGQGTQVTVSS | low polyreactivity
36 | QVQLVESGGGLVQAGGSLRLSCAASGSIFGVYTMGWYRQAPGKERELVAAITSAGSTYADSVKGRFTISRDNAKNTVYLQMNSLKPEDTEVFYCNAQSVLLSLRVELREPHEYWGQGTQVTVSS | low polyreactivity
37 | QVQLVESGGGLVQAGGSLRLSCAASGSIFGWYAKGLYRQAPGKEREFVAVISSSGDSTFYADSVKGRFTISRDNAKNTVYLQMNSLKPEDTAVYYCAAYYYYYYWPQTAYWQGDYWGHGTQVTVSS | high polyreactivity
38 | QVQLVESGGGLVQAGGSLRLSCAASGSIFGYNAMGWSRPAPGKERELVAAITSSGGSTYYADSVKGRFTISRDNAKNTVYLQMNSLKPEDTAVYYCNARDWYIVWYDYWGQGTQVTVSS | low polyreactivity
39 | QVQLVESGGGLVQAGGSLRLSCAASGSIFGYNAMGWYRPAPGKERELVAAISRSGGSTYYADSVKGRFTISRDNAKNTVYLQMNSLKPEDTAVSYCATGYYGYRYGYWGQGTQVTVSS | high polyreactivity
40 | QVQLVESGGGLVQAGGSLRLSCAASGSIFGYNAMGWYRQAPGKERELVADISSGDSTNYADSVKGRFTISRDNAKNTVYLQMNSLKPEDTAVYYCAADFTYQGSSANDYWGQGTQVTVSS | low polyreactivity
41 | QVQLVESGGGLVQAGGSLRLSCAASGSIFGYNAMGWYRQAPGKERELVAVINASGASTYYADSVKGRFTISRDNAKNTVYLQMNSLKPEDTAVYYCAKDPFPFPGGDYWGQGTQVTVSS | low polyreactivity
42 | QVQLVESGGGLVQAGGSLRLSCAASGSIFGYNAMGWYRQAPGKESELVAAISSSGGRTYYADSVKGRFTNSRDNAKNTVYLQMNSLKPEDTAVYYCAALGLYGDYLWYDYWGQGTQVTVSS | high polyreactivity
43 | QVQLVESGGGLVQAGGSLRLSCAASGSIFGYNAMGWYRQAPGKETELVAVITRSDGSTYYADSVKGRFTISRDNAKNTVYLQMNSLKPVDTAVYYCNAETHVYYWGVVIYEYNYWGQGTQVTVSS | low polyreactivity
